Measurements taken from patent US20160017037A1 (GlaxoSmithKline, published 2016).
Values joined by “and” are separate entries in the source; they are usually repeats but may differ in a detail not shown here. Identical values can stand only once.

Molecular target: T1, Human LAG-3 on cells (human LAG-3 expressing EL4 cells; activated human CD3+ T cells) (human, UniProt P18627 23-525)
T1 sequence (looked up): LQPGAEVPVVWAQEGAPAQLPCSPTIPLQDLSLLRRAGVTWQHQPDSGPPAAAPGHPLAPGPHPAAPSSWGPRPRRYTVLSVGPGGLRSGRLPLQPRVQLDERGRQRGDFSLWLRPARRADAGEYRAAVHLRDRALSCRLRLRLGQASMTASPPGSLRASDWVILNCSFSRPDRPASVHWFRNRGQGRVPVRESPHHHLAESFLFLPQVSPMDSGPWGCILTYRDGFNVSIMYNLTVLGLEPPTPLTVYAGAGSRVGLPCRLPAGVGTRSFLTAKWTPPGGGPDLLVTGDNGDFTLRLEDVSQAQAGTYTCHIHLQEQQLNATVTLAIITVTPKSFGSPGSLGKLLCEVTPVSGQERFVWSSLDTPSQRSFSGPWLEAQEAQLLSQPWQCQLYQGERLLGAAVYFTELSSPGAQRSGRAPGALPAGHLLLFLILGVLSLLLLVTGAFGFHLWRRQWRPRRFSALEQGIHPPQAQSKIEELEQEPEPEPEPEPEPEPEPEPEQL
Assay: cell-based or functional assay

EC50 of depletion of antigen specific CD4 T cells by ADCC (primary human T cells, autologous NK cells, 18 h): 14 µg/mL and 3.4 ng/mL
EC50 of depletion of antigen specific LAG-3 positive CD8 T cells by ADCC: 122 µg/mL and 0.0175 µg/mL
B1: H5L7BW (antibody, human IgG1, kappa)
heavy: not shown
light: DIQMTQSPSSLSASVGDRVTITCKSSQSLLNPSNQKNYLAWYQQKPGKAPKLLVYFASTRDSGVPSRFSGSGSGTDFTLTISSLQPEDFATYYCLQHFGTPPTFGQGTKLEIKRTVAAPSVFIFPPSDEQLKSGTASVVCLLNNFYPREAKVQWKVDNALQSGNSQESVTEQDSKDSTYSLSSTLTLSKADYEKHKVYACEVTHQGLSSPVTKSFNRGEC
modifications: afucosylated: no fucose on the core carbohydrate structure attached to Asn297
notes: Same plasmids as H5L7, expressed in the BioWa POTELLIGENT (FUT8 knock-out CHO) cell line; also called afucosylated antibody H5L7BW; afucosylated H5L7
